Measured values reported in patent US20240101959A1, “USE OF IL-2R-BETA-GAMMA AGONIST PEPTIDES IN CELL MANUFACTURING” (MEDIKINE, INC., priority 2022, published 2024).
Positions of bridges follow the written chain, without caps; N, C: chain ends. No end group written: not given here.

T1: hu-IL-2Rβ subunit (human, UniProt P14784 27-240, limits assumed)
T1 construct: also called human interleukin-2 receptor subunit β; CD122
T1 sequence (looked up): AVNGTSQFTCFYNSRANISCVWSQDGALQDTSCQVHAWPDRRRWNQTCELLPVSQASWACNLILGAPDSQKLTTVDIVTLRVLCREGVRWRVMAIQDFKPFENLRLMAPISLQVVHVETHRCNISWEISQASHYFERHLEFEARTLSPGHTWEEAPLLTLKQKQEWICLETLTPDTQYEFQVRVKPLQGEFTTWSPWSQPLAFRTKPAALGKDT

B1: SEQ ID NO 244 (peptide)
peptide: STGWYPCWIAEFGELCDLVKPH
B2: SEQ ID NO 349 (peptide)
peptide: ETLGSVWYPCWIASIGELCDLD
B3: SEQ ID NO 247 (peptide)
peptide: QTGSYPCWIAHLGELCDLEGSA
B4: SEQ ID NO 242 (peptide)
peptide: SRFWQPCWMAQLGELCHLDPQM
B5: SEQ ID NO 251 (peptide)
peptide: WYPCGVAQPGDLCDLE
B6: SEQ ID NO 347 (peptide)
peptide: WYPCWLAKLGELCDLDRAEALP
B7: SEQ ID NO 338 (peptide)
peptide: TNNFYPCWLAKLGDLCDFDDLN
modifications: disulfide 7-16 (inferred)
B8: SEQ ID NO 344 (peptide)
peptide: RWPWYPCEIARIGELCDLEQAN
B9: SEQ ID NO 246 (peptide)
peptide: HPVRYPCWVAQLGELCDLENGN
B10: SEQ ID NO 250 (peptide)
peptide: MGTGWQNYCRYAQLGELCLL
B11: SEQ ID NO 87 (peptide)
peptide: WYPCWLAQLGDLCDLD
B12: SEQ ID NO 462 (peptide)
peptide: WYPCWVAQLGELCDLE
B13: SEQ ID NO 369 (peptide)
peptide: WYPCWLAHLGELCDLE
B14: SEQ ID NO 352 (peptide)
peptide: WYPCWIAQLGELCDLV
B15: SEQ ID NO 472 (peptide)
peptide: WYPCWVAKLGELCDLE
B16: SEQ ID NO 148 (peptide)
peptide: WYPCWIAQLGELCDLE
B17: SEQ ID NO 361 (peptide)
peptide: WYPCWLAQLGELCDLD
B18: SEQ ID NO 474 (peptide)
peptide: WYPCWMAHLGELCDLE
B19: SEQ ID NO 142 (peptide)
peptide: WYPCWIAKLGELCDLE
B20: SEQ ID NO 341 (peptide)
peptide: WYPCWIAHLGELCDLE
B21: SEQ ID NO 395 (peptide)
peptide: WYPCWLAHLGELCDLA
B22: SEQ ID NO 147 (peptide)
peptide: WHPCWIAQLGELCDLE
B23: SEQ ID NO 384 (peptide)
peptide: WYPCWMARMGELCDLE
B24: SEQ ID NO 130 (peptide)
peptide: WYPCWLAQLGELCDLD
B25: SEQ ID NO 554 (peptide)
peptide: WYPCWLAQVGELCDLD
B26: SEQ ID NO 387 (peptide)
peptide: RYPCWIAQLGELCDLD
B27: SEQ ID NO 376 (peptide)
peptide: WYPCWMAQLGELCDMD
modifications: disulfide 4-13 (inferred)
B28: SEQ ID NO 388 (peptide)
peptide: WHPCWIAHLGELCDLE
B29: SEQ ID NO 137 (peptide)
peptide: WYPCWMARLGELCDLE
B30: SEQ ID NO 342 (peptide)
peptide: WYPCWIARVGELCDME
modifications: disulfide 4-13 (inferred)
B31: SEQ ID NO 553 (peptide)
peptide: WYPCWIARVGELCDLE
B32: SEQ ID NO 245 (peptide)
peptide: AHWSQPCWTAQLGELCDLDMGD
B33: SEQ ID NO 253 (peptide)
peptide: WDGWECGMDHDGWVCEFWGE
B34: SEQ ID NO 348 (peptide)
peptide: VWFPCWFAQLGDLCDLDQDP
B35: SEQ ID NO 96 (peptide)
peptide: WLPCWMAHLGQLCDLDLPGKSM
B36: SEQ ID NO 350 (peptide)
peptide: WYSCWIAQLGELCDLDDMGDRV
modifications: disulfide 4-13 (inferred)
B37: SEQ ID NO 95 (peptide)
peptide: WLPCWIASLGELCDLDTGKRQG
B38: SEQ ID NO 248 (peptide)
peptide: TGWWYPCWMAQLGELCDLQQT
modifications: disulfide 7-16 (inferred)
B39: SEQ ID NO 345 (peptide)
peptide: FGAFYPCWKAQLGELCDLEPVT
B40: SEQ ID NO 340 (peptide)
peptide: AVEFYPCWLARIGELCDLVEP
B41: SEQ ID NO 94 (peptide)
peptide: AGDWLPCWMAELGELCDLEGPT
B42: SEQ ID NO 351 (peptide)
peptide: WFPCWLAQLGELCDKE
B43: SEQ ID NO 346 (peptide)
peptide: HGRWFPCWMAQVGDLCDLEHSN
B44: SEQ ID NO 252 (peptide)
peptide: MLGEWLCEMDQLGYLCYLDHGD
B45: SEQ ID NO 243 (peptide)
peptide: YLNFNPCWTAQLGELCDLASGE
B46: SEQ ID NO 241 (peptide)
peptide: QPAWLPCWLAQLGELCDLGTGA
B47: SEQ ID NO 343 (peptide)
peptide: RREWYPCWIAQVGELCDLPLI
B48: SEQ ID NO 249 (peptide)
peptide: DLWQPCWMARLGELCDLKG
B49: SEQ ID NO 337 (peptide)
peptide: WYPCWIAQLGELCDLDAKGQRR
B50: SEQ ID NO 339 (peptide)
peptide: WYPCWIARVGELCDLEEGPVNR

target: T1, hu-IL-2Rβ subunit; test: phage ELISA competition assay

IC50 | Binder
< 100 µM | B1
< 100 µM | B2
< 100 µM | B3
< 100 µM | B4
< 100 µM | B5
< 100 µM | B6
< 100 µM | B7
< 100 µM | B8
< 100 µM | B9
< 100 µM | B10
< 100 µM | B11
< 100 µM | B12
< 100 µM | B13
< 100 µM | B14
< 100 µM | B15
< 100 µM | B16
< 100 µM | B17
< 100 µM | B18
< 100 µM | B19
< 100 µM | B20
< 100 µM | B21
< 100 µM | B22
< 100 µM | B23
< 100 µM | B24
< 100 µM | B25

IC50 | Binder
< 100 µM | B26
< 100 µM | B27
< 100 µM | B28
< 100 µM | B29
< 100 µM | B30
< 100 µM | B31
< 100 µM | B32
< 100 µM | B33
< 100 µM | B34
< 100 µM | B35
< 100 µM | B36
< 100 µM | B37
< 100 µM | B38
< 100 µM | B39
< 100 µM | B40
< 100 µM | B41
< 100 µM | B42
< 100 µM | B43
< 100 µM | B44
< 100 µM | B45
< 100 µM | B46
< 100 µM | B47
< 100 µM | B48
< 100 µM | B49
< 100 µM | B50
